Patent US20240377400A1, “METHODS FOR TREATING A SUBTYPE OF COLORECTAL CANCER” (Cornell University, priority 2021, published 2024)

Assays:
MTO-sgPrkci/sgPrkcz = experiment: PEGPH20 treatment in vitro of mouse tumor organoids, qPCR; format: cell-based; conditions: PEGPH20 2.5 μg/ml every other day for 6 days
Excerpt: To perform PRKCI and PRKCZ editing in PDOs, single-guide RNA sequences targeting PRKCI and PRKCZ (Table 3), were purchased from Synthego and transduced into PDOs with recombinant Streptococcus pyogenes Cas9 protein (Truecut Cas9 Protein v2, Thermo. To knock out Prkcz in mouse sgPrcki MTOs (Linares et al., 2021), single-guide RNA sequence targeting Prkcz (Table 3) was purchased from Synthego and transduced into sgPrcki MTOs as described above. PRKCI, PRKCZ, and Prkcz were knocked out using the Neon Transfection System 1 (Invitrogen) following the manufacturer's protocol and single clones were expanded and screened by protein immunoblotting. For the deletion of Prkci and Prkcz in normal organoids, 500 nM 4-OH-tamoxifen was added the second day after organoids were passaged. […]
Total RNA from cultured organoids was extracted using TRIZOL reagent (Invitrogen) and purified by the RNeasy Mini Kit (QIAGEN), followed by DNase treatment. After quantification using a Nanodrop 1000 spectrophotometer (Thermo Scientific), RNA was either processed for RNA-seq or reverse-transcribed using random primers and MultiScribe Reverse Transcriptase (Applied Biosystems). Gene expression was analyzed by amplifying 500 ng of the complementary DNA using the CFX96 Real Time PCR Detection System with SYBR Green Master Mix (BioRad) and primers described in Table 2. […]

[1] = tested on: tumors from Prkci^fl/fl Prkcz^fl/fl Villin-cre (DKO) mice; experiment: scRNAseq and IHC of DKO mouse intestinal tumors treated with PVHA or Galunisertib; format: in vivo
Description: FIG. 3A illustrates the experimental design: Prkci^fl/flPrkcz^fl/fl (DKO) mice were treated either with PVHA (0.0375 mg/Kg twice per week) or Galunisertib (10 mg twice daily) as described. Intestinal tumors were analyzed by scRNAseq.
To identify the mechanism of action of PVHA in the treatment of CMS4 tumors, scRNAseq was performed using 10× Genomics Chromium platform on tumors from Prkci^fl/fl Prkcz^fl/fl Villin-cre (DKO) mice (n=5) treated with PVHA for 14 weeks (n=3), as compared to those treated with Galunisertib (GAL) for 17 weeks (n=3), as shown in experimental design (FIG. 3A). Unsupervised clustering identified tumor and normal epithelial cells as well as stromal and immune cells with selective markers for each population (FIGS. 3B-3C). […] Among tumor clusters (0,4,6), a cell population with transcriptomic similarities to the recently identified “revival stem cells” (RSC; high Clu) in the vehicle treated tumors was identified (FIGS. 3F-3G).

B1: PEGPH20: a PEGylated version of human recombinant PH20 hyaluronidase; clinical-grade pegylated hyaluronidase (Halozyme Therapeutics) (protein, UniProt P38567 36-490, looked up)
Hyaluronidase PH-20: LNFRAPPVIPNVPFLWAWNAPSEFCLGKFDEPLDMSLFSFIGSPRINATGQGVTIFYVDRLGYYPYIDSITGVTVNGGIPQKISLQDHLDKAKKDITFYMPVDNLGMAVIDWEEWRPTWARNWKPKDVYKNRSIELVQQQNVQLSLTEATEKAKQEFEKAGKDFLVETIKLGKLLRPNHLWGYYLFPDCYNHHYKKPGYNGSCFNVEIKRNDDLSWLWNESTALYPSIYLNTQQSPVAATLYVRNRVREAIRVSKIPDAKSPLPVFAYTRIVFTDQVLKFLSQDELVYTFGETVALGASGIVIWGTLSIMRSMKSCLLLDNYMETILNPYIINVTLAAKMCSQVLCQEQGVCIRKNWNSSDYLHLNPDNFAIQLEKGGKFTVRGKPTLEDLEQFSEKFYCSCYSTLSCKEKADVKDTDAVDVCIADGVCIDAFLKPPMETEEPQIFYNASPSTLS
modifications: PEGylated
- Anxa10 expression (MTO-sgPrkci/sgPrkcz): reduced
- Clu levels (MTO-sgPrkci/sgPrkcz): without changes
- numbers of inferred interactions of tumor epithelial cells with immune cells ([1]; CellphoneDB, as compared to GAL treatment): higher
- Cd81+Pdgfra− fibroblast around the Crypt, IHC ([1]; DKO intestine): induction
- Trophocyte-like fibroblast cluster (Cd34, Cd81) ([1]; scRNAseq): strongly increased
- Cd8 T cells, cell type proportion ([1]; scRNAseq T cells): increase
- proportion of Treg ([1]; scRNAseq T cells): reduce
- fibroblast clusters associated with human CRC (Grem1/Sfrp1, Igf1/Cxcl14), CMS4 subtype (Sfrp2) and tumor initiation (Ptgs2/Spp1) ([1]; scRNAseq cell-type proportion): complete elimination
- tumor cells, cell percentage analysis ([1]; scRNAseq epithelial cells, compared to vehicle or GAL-treated): clear reduction
- tumoral goblet population ([1]; scRNAseq goblet cells): reduction
- T cells, cell-type proportion ([1]; scRNAseq immune cells): increase
- myeloid cells, cell-type proportion ([1]; scRNAseq immune cells): decrease
- TAN1 (anti-tumoral neutrophils) ([1]; scRNAseq myeloid cells): increased
- TAN2 (pro-tumoral neutrophils) ([1]; scRNAseq myeloid cells): reduced
- proportion of dendritic cells ([1]; scRNAseq myeloid cells): increased
- percentage of stromal and immune cells ([1]; scRNAseq, PVHA 0.0375 mg/Kg twice per week, 14 weeks, Galunisertib 10 mg twice daily, 17 weeks): decreased
- mature goblets proportion ([1]; scRNAseq, as compared to GAL): increased
- Lgr5 Stem Cells population ([1]; scRNAseq, population lost in the DKO intestine): recovered
- number of stromal cells ([1]; scRNAseq, without apparent changes in cell-type proportions): reduced
- Clu IHC ([1]; tumor area): decrease
- immature goblets, IHC double staining for Alcian blue and Lyz1 ([1]; tumor area): reduction
